# Publication PMC4118829
# Experiments:
# [1] = biological target: N-terminal domain of the ectodomain of Hepatitis C virus envelope glycoprotein E1, N43Q (Hepatitis C virus); test: SEC; size-exclusion chromatography; data not shown
# [2] = biological target: N-terminal domain of the ectodomain of Hepatitis C virus envelope glycoprotein E1, N43Q (Hepatitis C virus); test: reducing and nonreducing SDS-PAGE; 15% reducing (R) and nonreducing (NR) SDS-PAGE gels of purified deglycosylated HCV nE1; covalent dimer
substance,measurement,setting,value
"N-terminal domain of the ectodomain of Hepatitis C virus envelope glycoprotein E1, N43Q (domain or fragment)",stoichiometry N,[1],2
same,stoichiometry N,[2],2
